{"source": "paper PMC5209733", "about": "“U24 from Roseolovirus interacts strongly with Nedd4 WW Domains” (Scientific Reports, 2017)", "key": {"[1]": {"target": "hNedd4L-WW3* domain (third WW domain of human Nedd4-like protein, GST tag removed) (human) (UniProt Q96PU5)", "sequence (Q96PU5 496-539)": "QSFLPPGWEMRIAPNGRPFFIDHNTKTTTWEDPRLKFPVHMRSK", "assay": "ITC; peptide titrated into the cleaved WW domain (40 to 150 uM) in the cell; 10 mM sodium phosphate, pH 7.4, 25 °C; MicroCal VP-ITC; bimolecular interaction model; three runs (further runs with 100 mM and 500 mM NaCl told in words only)"}, "Fyn SH3 (Homo sapiens)": {"target": "Fyn SH3 (Homo sapiens) (UniProt P06241)", "sequence (P06241 79-146)": "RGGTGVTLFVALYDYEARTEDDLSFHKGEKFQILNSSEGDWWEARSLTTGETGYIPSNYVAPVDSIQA", "conditions": "cited from earlier work"}, "[2]": {"target": "hNedd4-WW3* domain (third WW domain of human Nedd4, GST tag removed) (human) (UniProt P46934)", "sequence (P46934 whole entry, the tested form may be a part)": "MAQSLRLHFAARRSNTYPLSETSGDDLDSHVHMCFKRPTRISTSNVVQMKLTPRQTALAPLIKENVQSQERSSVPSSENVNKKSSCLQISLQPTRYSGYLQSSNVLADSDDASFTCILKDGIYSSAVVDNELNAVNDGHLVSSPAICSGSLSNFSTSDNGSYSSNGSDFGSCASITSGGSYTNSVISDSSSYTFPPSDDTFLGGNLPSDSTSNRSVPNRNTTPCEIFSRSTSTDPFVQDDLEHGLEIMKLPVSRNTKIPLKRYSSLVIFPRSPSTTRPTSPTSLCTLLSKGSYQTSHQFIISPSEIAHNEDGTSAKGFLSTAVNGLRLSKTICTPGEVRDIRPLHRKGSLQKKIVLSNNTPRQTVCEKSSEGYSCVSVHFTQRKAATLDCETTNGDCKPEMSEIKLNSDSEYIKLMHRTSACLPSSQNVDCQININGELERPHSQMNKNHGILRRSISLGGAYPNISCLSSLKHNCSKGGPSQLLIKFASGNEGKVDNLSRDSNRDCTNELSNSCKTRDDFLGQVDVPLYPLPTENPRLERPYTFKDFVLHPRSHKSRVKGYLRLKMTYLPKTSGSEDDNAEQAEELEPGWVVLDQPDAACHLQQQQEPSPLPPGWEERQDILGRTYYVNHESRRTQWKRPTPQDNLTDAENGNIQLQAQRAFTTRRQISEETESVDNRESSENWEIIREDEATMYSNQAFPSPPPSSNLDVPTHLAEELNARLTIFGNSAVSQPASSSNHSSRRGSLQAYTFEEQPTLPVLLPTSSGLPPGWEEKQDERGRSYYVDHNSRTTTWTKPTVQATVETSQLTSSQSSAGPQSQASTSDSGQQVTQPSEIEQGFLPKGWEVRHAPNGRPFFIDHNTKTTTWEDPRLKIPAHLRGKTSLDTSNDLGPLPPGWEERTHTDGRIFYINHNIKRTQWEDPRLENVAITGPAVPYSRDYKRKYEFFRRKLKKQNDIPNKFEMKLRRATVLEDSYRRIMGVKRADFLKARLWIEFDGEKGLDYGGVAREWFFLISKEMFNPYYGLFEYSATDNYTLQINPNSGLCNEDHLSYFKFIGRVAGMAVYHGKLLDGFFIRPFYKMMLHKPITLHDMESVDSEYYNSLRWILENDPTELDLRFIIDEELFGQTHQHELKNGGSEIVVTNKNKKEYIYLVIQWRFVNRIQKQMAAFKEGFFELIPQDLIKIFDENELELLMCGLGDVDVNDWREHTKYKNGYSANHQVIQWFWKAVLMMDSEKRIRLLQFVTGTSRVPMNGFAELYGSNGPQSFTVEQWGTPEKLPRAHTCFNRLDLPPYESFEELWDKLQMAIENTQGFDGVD", "assay": "ITC; peptide titrated into the cleaved WW domain (40 to 150 uM) in the cell; 10 mM sodium phosphate, pH 7.4, 25 °C; MicroCal VP-ITC; bimolecular interaction model; three runs (further runs with 100 mM and 500 mM NaCl told in words only)"}, "[3]": {"target": "rNedd4-WW2 domain (second WW domain of rat Nedd4, GST tag removed) (rat) (UniProt Q62940)", "sequence (Q62940 whole entry, the tested form may be a part)": "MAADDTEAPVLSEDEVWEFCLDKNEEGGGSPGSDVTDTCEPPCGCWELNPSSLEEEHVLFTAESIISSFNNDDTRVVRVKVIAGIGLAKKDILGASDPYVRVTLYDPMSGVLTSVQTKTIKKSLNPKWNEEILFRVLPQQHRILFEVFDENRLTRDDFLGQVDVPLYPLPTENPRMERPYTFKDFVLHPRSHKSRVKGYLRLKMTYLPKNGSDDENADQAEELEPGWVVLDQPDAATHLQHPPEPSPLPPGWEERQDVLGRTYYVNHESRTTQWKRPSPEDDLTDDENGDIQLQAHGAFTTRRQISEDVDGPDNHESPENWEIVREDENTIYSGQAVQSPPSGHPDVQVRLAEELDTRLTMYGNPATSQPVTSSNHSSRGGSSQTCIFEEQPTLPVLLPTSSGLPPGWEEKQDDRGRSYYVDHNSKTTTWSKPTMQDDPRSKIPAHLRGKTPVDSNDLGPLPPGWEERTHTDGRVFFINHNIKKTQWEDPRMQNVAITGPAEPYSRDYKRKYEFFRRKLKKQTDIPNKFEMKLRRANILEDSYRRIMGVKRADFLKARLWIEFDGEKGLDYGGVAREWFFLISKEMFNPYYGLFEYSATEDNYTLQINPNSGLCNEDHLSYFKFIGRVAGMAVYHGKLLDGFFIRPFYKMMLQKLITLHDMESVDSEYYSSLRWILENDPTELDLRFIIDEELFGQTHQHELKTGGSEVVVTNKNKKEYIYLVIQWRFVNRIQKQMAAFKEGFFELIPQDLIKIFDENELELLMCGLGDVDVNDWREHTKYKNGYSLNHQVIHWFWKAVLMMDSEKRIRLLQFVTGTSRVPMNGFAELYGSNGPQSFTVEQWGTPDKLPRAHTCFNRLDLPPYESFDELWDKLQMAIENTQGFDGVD", "assay": "ITC; peptide titrated into the cleaved WW domain (40 to 150 uM) in the cell; 10 mM sodium phosphate, pH 7.4, 25 °C; MicroCal VP-ITC; bimolecular interaction model; three runs (further runs with 100 mM and 500 mM NaCl told in words only)"}, "[4]": {"target": "rNedd4-WW3/4 domain (third WW domain of rat Nedd4, GST tag removed) (rat) (UniProt Q62940)", "sequence (Q62940 452-499)": "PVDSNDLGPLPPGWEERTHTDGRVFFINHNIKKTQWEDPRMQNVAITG", "assay": "ITC; peptide titrated into the cleaved WW domain (40 to 150 uM) in the cell; 10 mM sodium phosphate, pH 7.4, 25 °C; MicroCal VP-ITC; bimolecular interaction model; three runs (further runs with 100 mM and 500 mM NaCl told in words only)"}}}
{"substance": "Nogo-A PY motif peptide", "values": [{"measurement": "Kd", "setting": "[1]", "result": 4, "unit": "µM"}, {"measurement": "dH", "setting": "[1]", "result": -13.8, "unit": "kcal/mol"}]}
{"substance": "U24-6A (from UniProt Q69559)", "values": [{"measurement": "Kd", "setting": "Fyn SH3 (Homo sapiens)", "result": 5000, "unit": "µM"}]}
{"substance": "U24-6A peptide (15-mer, N-terminus of U24 from HHV-6A) (from UniProt Q69559 1-15)", "values": [{"measurement": "Kd", "setting": "[2]", "result": 9.7, "unit": "µM"}, {"measurement": "dH", "setting": "[2]", "result": -12.7, "unit": "kcal/mol"}, {"measurement": "Kd", "setting": "[3]", "result": 155, "unit": "µM"}, {"measurement": "dH", "setting": "[3]", "result": -12.9, "unit": "kcal/mol"}]}
{"substance": "U24-7 peptide (15-mer, N-terminus of U24 from HHV-7)", "values": [{"measurement": "Kd", "setting": "[2]", "result": 1.98, "unit": "µM"}, {"measurement": "dH", "setting": "[2]", "result": -16.8, "unit": "kcal/mol"}, {"measurement": "Kd", "setting": "[3]", "result": 87, "unit": "µM"}, {"measurement": "dH", "setting": "[3]", "result": -18.2, "unit": "kcal/mol"}, {"measurement": "Kd", "setting": "[4]", "result": 21, "unit": "µM"}, {"measurement": "dH", "setting": "[4]", "result": -15.2, "unit": "kcal/mol"}]}
